One block for each molecule: values may come before it.
Columns and labels:
[1] = target: FcγRIII CD16 on NK cells (human (endogenous in NK cells of healthy donors)) (UniProt P08637); test: FACS; NK cells within PBMC
[2] = target: FcγRIII CD16 on NK cells (human (endogenous in NK cells of healthy donors)) (UniProt P08637); test: flow cytometry on cells; PBMC of healthy donors incubated with the indicated concentrations of NKG2D-Fc-ADCC, followed by an anti-human PE conjugate; EC50 from MFI by a sigmoidal dose-response curve (GraphPad Prism); one representative experiment of three
[3] = target: CD3 (Homo sapiens); test: FACS; T cells within PBMC; conditions: other; Only the NKG2D limits and the CH2 changes are printed. UCHT1 VH/VL are taken from the 1XIW scFv complex (entity order VL=3, VH=4 from memory). Human CH1/hinge and human C-kappa are assumed (KappaSelect purification, anti-human PE detection). CH2 end (EU 340) is by convention. G236 (P01857 119) is deleted; EU number = P01857 number + 117. Junction residues are not printed. Fab interchain disulfide; modification not given
CD3 (Homo sapiens), sequence (P07766 23-207, chain 1 of 3): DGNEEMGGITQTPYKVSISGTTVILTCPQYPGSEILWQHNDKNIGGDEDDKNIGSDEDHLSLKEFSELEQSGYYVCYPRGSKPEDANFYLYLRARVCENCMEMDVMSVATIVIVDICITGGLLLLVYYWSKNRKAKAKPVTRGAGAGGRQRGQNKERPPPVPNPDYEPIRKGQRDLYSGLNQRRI
CD3 (Homo sapiens), sequence (P04234 22-171, chain 2 of 3, further chain): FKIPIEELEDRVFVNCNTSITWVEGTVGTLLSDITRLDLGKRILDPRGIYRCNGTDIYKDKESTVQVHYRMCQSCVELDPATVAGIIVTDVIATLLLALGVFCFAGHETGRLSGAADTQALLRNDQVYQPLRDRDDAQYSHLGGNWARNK
CD3 (Homo sapiens), sequence (P09693 23-182, chain 3 of 3, further chain): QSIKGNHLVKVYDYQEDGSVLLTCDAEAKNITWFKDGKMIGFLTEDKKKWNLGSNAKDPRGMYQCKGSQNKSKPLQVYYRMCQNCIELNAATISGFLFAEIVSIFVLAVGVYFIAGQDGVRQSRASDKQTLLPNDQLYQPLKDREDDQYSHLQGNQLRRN

UniProt P08637, sequence (P08637 17-254): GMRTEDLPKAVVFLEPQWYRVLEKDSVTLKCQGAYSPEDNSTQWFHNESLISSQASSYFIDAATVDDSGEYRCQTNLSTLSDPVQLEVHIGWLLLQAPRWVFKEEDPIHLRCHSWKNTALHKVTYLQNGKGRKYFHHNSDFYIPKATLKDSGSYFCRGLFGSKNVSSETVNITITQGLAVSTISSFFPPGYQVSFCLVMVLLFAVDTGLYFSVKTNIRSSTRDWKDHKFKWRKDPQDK

EC50 [1]: 2.2 nM
Molecule: NKG2D-CD16 bispecific fusion protein (from UniProt P26718 78-216)

EC50 [2]: 20 nM
Molecule: NKG2D-Fc-ADCC fusion protein (from UniProt P26718 73-216) (Fc fusion)

EC50 [3]: 2.1 nM
B1: NKG2D-CD3 bispecific fusion protein, P26718 78-216 (protein)
chain 1: EVQLQQSGPELVKPGASMKISCKASGYSFTGYTMNWVKQSHGKNLEWMGLINPYKGVSTYNQKFKDKATLTVDKSSSTAYMELLSLTSEDSAVYYCARSGYYGDSDWYFDVWGQGTTLTVFSASTKGPSVFPLAPSSKSTSGGTAALGCLVKDYFPEPVTVSWNSGALTSGVHTFPAVLQSSGLYSLSSVVTVPSSSLGTQTYICNVNHKPSNTKVDKKVEPKSCDKTHTSPPSPAPPVAGPSVFLFPPKPKDTLMISRTPEVTCVVVGVSHEDPEVKFNWYVDGVEVHNAKTKPREEQYQSTYRVVSVLTVLHQDWLNGKEYKCKVSNKQLPSPIEKTISKAKFLNSLFNQEVQIPLTESYCGPCPKNWICYKNNCYQFFDESKNWYESQASCMSQNASLLKVYSKEDQDLLKLVKSYHWMGLVHIPTNGSWQWEDGSILSPNLLTIIEMQKGDCALYASSFKGYIENCSTPNTYICMQRTV
chain 2: MDIQMTQTTSSLSASLGDRVTISCRASQDIRNYLNWYQQKPDGTVKLLIYYTSRLHSGVPSKFSGSGSGTDYSLTISNLEQEDIATYFCQQGNTLPWTFAGGTKLEIKRTVAAPSVFIFPPSDEQLKSGTASVVCLLNNFYPREAKVQWKVDNALQSGNSQESVTEQDSKDSTYSLSSTLTLSKADYEKHKVYACEVTHQGLSSPVTKSFNRGEC

Reference: paper PMC6542021
